Measurements taken from patent publication US20230235013A1 (MABSOLVE, published 2023).

B1: anti-CD3 human IgG1 L234A/L235A (LALA) (antibody)
heavy: not shown
light: QIVLTQSPAIMSASPGEKVTMTCSASSSVSYMNWYQQKSGTSPKRWIYDTSKLASGVPAHFRGSGSGTSYSLTISGMEAEDAATYYCQQWSSNPFTFGSGTKLEIKRTVAAPSVFIFPPSDEQLKSGTASVVCLLNNFYPREAKVQWKVDNALQSGNSQESVTEQDSKDSTYSLSSTLTLSKADYEKHKVYACEVTHQGLSSPVTKSFNRGEC
notes: also called 3-65; copies: 2 + 2
B2: anti-CD3 human IgG1 L234A/L235A/P329G (LALAPG reference) (antibody)
heavy: not shown
light: QIVLTQSPAIMSASPGEKVTMTCSASSSVSYMNWYQQKSGTSPKRWIYDTSKLASGVPAHFRGSGSGTSYSLTISGMEAEDAATYYCQQWSSNPFTFGSGTKLEIKRTVAAPSVFIFPPSDEQLKSGTASVVCLLNNFYPREAKVQWKVDNALQSGNSQESVTEQDSKDSTYSLSSTLTLSKADYEKHKVYACEVTHQGLSSPVTKSFNRGEC
notes: also called 3-66; copies: 2 + 2
B3: anti-CD20 (rituximab) human IgG1 wild-type reference (antibody)
heavy: not shown
light: QIVLSQSPAILSASPGEKVTMTCRASSSVSYIHWFQQKPGSSPKPWIYATSNLASGVPVRFSGSGSGTSYSLTISRVEAEDAATYYCQQWTSNPPTFGGGTKLEIKRTVAAPSVFIFPPSDEQLKSGTASVVCLLNNFYPREAKVQWKVDNALQSGNSQESVTEQDSKDSTYSLSSTLTLSKADYEKHKVYACEVTHQGLSSPVTKSFNRGEC
notes: 2-1 and 10.0 are separate preparations of the same antibody; also called 2-1; 10.0; copies: 2 + 2
B4: anti-CD20 (rituximab) human IgG1 L234T/L235T/G236R (antibody)
heavy: QVQLQQPGAELVKPGASVKMSCKASGYTFTSYNMHWVKQTPGRGLEWIGAIYPGNGDTSYNQKFKGKATLTADKSSSTAYMQLSSLTSEDSAVYYCARSTYYGGDWYFNVWGAGTTVTVSSASTKGPSVFPLAPSSKSTSGGTAALGCLVKDYFPEPVTVSWNSGALTSGVHTFPAVLQSSGLYSLSSVVTVPSSSLGTQTYICNVNHKPSNTKVDKKVEPKSCDKTHTCPPCPAPETTRGPSVFLFPPKPKDTLMISRTPEVTCVVVDVSHEDPEVKFNWYVDGVEVHNAKTKPREEQYNSTYRVVSVLTVLHQDWLNGKEYKCKVSNKALPAPIEKTISKAKGQPREPQVYTLPPSRDELTKNQVSLTCLVKGFYPSDIAVEWESNGQPENNYKTTPPVLDSDGSFFLYSKLTVDKSRWQQGNVFSCSVMHEALHNHYTQKSLSLSPGK
light: QIVLSQSPAILSASPGEKVTMTCRASSSVSYIHWFQQKPGSSPKPWIYATSNLASGVPVRFSGSGSGTSYSLTISRVEAEDAATYYCQQWTSNPPTFGGGTKLEIKRTVAAPSVFIFPPSDEQLKSGTASVVCLLNNFYPREAKVQWKVDNALQSGNSQESVTEQDSKDSTYSLSSTLTLSKADYEKHKVYACEVTHQGLSSPVTKSFNRGEC
notes: EU numbering; also called 2-63; 1-165; copies: 2 + 2
B5: anti-CD20 (rituximab) human IgG1 N297Q (aglycosyl) (antibody)
heavy: not shown
light: QIVLSQSPAILSASPGEKVTMTCRASSSVSYIHWFQQKPGSSPKPWIYATSNLASGVPVRFSGSGSGTSYSLTISRVEAEDAATYYCQQWTSNPPTFGGGTKLEIKRTVAAPSVFIFPPSDEQLKSGTASVVCLLNNFYPREAKVQWKVDNALQSGNSQESVTEQDSKDSTYSLSSTLTLSKADYEKHKVYACEVTHQGLSSPVTKSFNRGEC
notes: EU numbering; also called 2-67; copies: 2 + 2
B6: anti-CD20 (rituximab) human IgG1 L234A/L235A (LALA) (antibody)
heavy: not shown
light: QIVLSQSPAILSASPGEKVTMTCRASSSVSYIHWFQQKPGSSPKPWIYATSNLASGVPVRFSGSGSGTSYSLTISRVEAEDAATYYCQQWTSNPPTFGGGTKLEIKRTVAAPSVFIFPPSDEQLKSGTASVVCLLNNFYPREAKVQWKVDNALQSGNSQESVTEQDSKDSTYSLSSTLTLSKADYEKHKVYACEVTHQGLSSPVTKSFNRGEC
notes: EU numbering; also called 2-65; 10.16; copies: 2 + 2

Legend:
[1] = molecular target: T1, CD3D/CD3E heterodimer (Sino Biologicals Cat. No. CT038-H2508H) (human, UniProt P04234 22-105; P07766 23-126); assay: ELISA, antigen coated, antibody 5 µg/mL
T1 construct: bought; also called CD3 antigen; human CD3

[2] = molecular target: T2, Histidine-tagged recombinant human FcγRI (CD64) (human, UniProt P12314 16-288); assay: SPR, captured His-receptor
T2 construct: bought; also called Sino Biological Cat. No. 12056-H08H

[3] = molecular target: T3, human FcγRIIA (R131, Sino Biological Cat. No. 10374-H08H) (human, UniProt P12318 34-218); assay: SPR, captured His-receptor
T3 construct: bought; also called human FcγRIIa R131 allele; FcγRII allele R131
T3 sequence (looked up): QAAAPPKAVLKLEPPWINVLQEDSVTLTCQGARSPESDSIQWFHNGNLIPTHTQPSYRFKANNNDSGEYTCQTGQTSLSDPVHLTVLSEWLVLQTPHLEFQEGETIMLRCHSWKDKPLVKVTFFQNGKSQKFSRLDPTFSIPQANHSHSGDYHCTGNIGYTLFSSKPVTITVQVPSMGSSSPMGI

[4] = molecular target: T4, human FcRn (R&D Systems Cat. No. 8639-Fc) (human, UniProt P55899 24-297; P61769 21-119); assay: SPR, FcRn captured; Expt 3
[5] = molecular target: T5, Human C1q (Sigma Cat. No. 20476), HRP-labelled (human, UniProt P02745 23-245; P02746 28-253; P02747 29-245); assay: ELISA, antibody coated, HRP-C1q; Expt 1, buffer alone 0.061
T5 construct: Coupled to horse-radish peroxidase with Lightning-Link kit; also called HRP-labelled C1q

[6] = molecular target: T4, human FcRn (R&D Systems Cat. No. …); assay: SPR, FcRn captured; Expt 1
[7] = molecular target: T5, Human C1q (Sigma Cat. No. 20476), …; assay: ELISA, antibody coated, HRP-C1q; Expt 2, buffer alone 0.051
[8] = molecular target: T4, human FcRn (R&D Systems Cat. No. …); assay: SPR, FcRn captured; Expt 2
[9] = molecular target: T6, mouse FcRn (Sino Biological Cat. No. CT029-M08H) (mouse, UniProt Q61559 22-297; P01887 21-119); assay: SPR, FcRn captured via anti-His, pH 6.0;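 also: SPR binding signal relative to the reference cell, corrected by subtracting the response of a blank sample of running buffer alone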
T6 construct: Bought protein, captured on an anti-histidine chip
T6 sequence (looked up): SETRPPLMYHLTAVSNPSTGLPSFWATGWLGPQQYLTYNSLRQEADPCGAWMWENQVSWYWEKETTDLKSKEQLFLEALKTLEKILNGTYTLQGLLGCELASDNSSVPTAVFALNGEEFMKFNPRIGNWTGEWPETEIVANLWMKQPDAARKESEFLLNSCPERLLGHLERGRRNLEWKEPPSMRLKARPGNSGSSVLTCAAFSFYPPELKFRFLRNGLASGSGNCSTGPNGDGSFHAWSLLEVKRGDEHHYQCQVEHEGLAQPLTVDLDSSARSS
T6 sequence (b2m, looked up): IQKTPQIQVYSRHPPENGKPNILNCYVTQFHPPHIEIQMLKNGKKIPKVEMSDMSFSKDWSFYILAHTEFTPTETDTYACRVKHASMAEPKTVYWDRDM

[10] = molecular target: T7, cynomolgus monkey FcRn (Sino Biological Cat. No. CT031-C08H) (cynomolgus monkey, UniProt Q8SPV9 24-297; Q8SPW0 21-119); assay: SPR, FcRn captured via anti-His, pH 6.0;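 also: SPR binding signal relative to the reference cell, corrected by subtracting the response of a blank sample of running buffer alone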
T7 construct: Bought protein, captured on an anti-histidine chip; also called cynomolgus FcRn

[11] = molecular target: T4, human FcRn (R&D Systems Cat. No. …); assay: SPR, FcRn captured via anti-His, pH 6.0;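 also: SPR binding signal relative to the reference cell, corrected by subtracting the response of a blank sample of running buffer alone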
[12] = molecular target: T5, Human C1q (Sigma Cat. No. 20476), …; assay: ELISA, antibody coated, HRP-C1q; Expt 2, buffer alone 0.091
[13] = molecular target: T5, Human C1q (Sigma Cat. No. 20476), …; assay: ELISA, antibody coated, HRP-C1q; Expt 1, buffer alone 0.053
[14] = molecular target: T5, Human C1q (Sigma Cat. No. 20476), …; assay: ELISA, antibody coated, HRP-C1q; Expt 3, buffer alone 0.102
[15] = molecular target: T8, C-terminus biotinylated human FcRn attached to Streptavidin-SmBiT (FcRn-SAv-SmBiT) (human, UniProt P55899 24-297; P61769 21-119, limits assumed, C-terminus biotinylated (AviTag), attached to Streptavidin-SmBiT); assay: NanoBiT FcRn competition immunoassay, competitor Tracer-LgBiT human IgG, pH 6.0
T8 construct: Kit reagent; also called hFcRn-AviTag

[16] = molecular target: T4, human FcRn (R&D Systems Cat. No. …); assay: SPR, FcRn captured; Mean

Binder | Mean Absorbance [1] [absorbance] | binding result [2] | binding result [3] | Corrected and normalised response (% of wild-type reference) [4] | Mean Absorbance [5] | Corrected and normalised response (% of wild-type reference) [6] | Mean Absorbance [7] | Corrected and normalised response (% of wild-type reference) [8] | Corrected response (RU) [9] [RU] | Corrected response (RU) [10] [RU] | Corrected response (RU) [11] [RU] | Mean Absorbance [12] | Mean Absorbance [13] | Mean Absorbance [14] | Mean binding activity (% of wild-type reference) [15] | Corrected and normalised response (% of wild-type reference) [16]
B1 | 1.07 | binds | binds | – | – | – | – | – | – | – | – | – | – | – | – | –
B2 | 1.13 | binds | – | – | – | – | – | – | – | – | – | – | – | – | – | –
B3 | – | – | – | 100 % of wild-type reference | 2.63 absorbance (450 nm) | 100 % of wild-type reference | 1.33 absorbance (450 nm) | 100 % of wild-type reference | 178 | 1320 | 582 | 2.21 absorbance (450 nm) | 1.83 absorbance (450 nm) | 1.88 absorbance (450 nm) | 100 % of wild-type reference | 100 % of wild-type reference
B4 | – | – | – | 88.1 % of wild-type reference | 0.068 absorbance (450 nm) | 96 % of wild-type reference | – | 95.1 % of wild-type reference | – | – | – | 0.077 absorbance (450 nm) | – | 0.095 absorbance (450 nm) | 150 % of wild-type reference | 93 % of wild-type reference
B5 | – | – | – | 76.6 % of wild-type reference | – | 78.4 % of wild-type reference | – | 78.7 % of wild-type reference | 163 | 1010 | 421 | 0.076 absorbance (450 nm) | – | 0.083 absorbance (450 nm) | 34.1 % of wild-type reference | 77.9 % of wild-type reference
B6 | – | – | – | 92.9 % of wild-type reference | – | 92.8 % of wild-type reference | – | 94.2 % of wild-type reference | 190 | 1180 | 505 | 0.078 absorbance (450 nm) | – | 0.08 absorbance (450 nm) | 70.1 % of wild-type reference | 93.3 % of wild-type reference
